The values that follow come from paper PMC7948595, “1,6-Hexanediol, commonly used to dissolve liquid–liquid phase separated condensates, directly impairs kinase and phosphatase activities” (The Journal of Biological Chemistry, 2021).

This assay has as its target T1, GST-Cdk7 (2–346) (human, UniProt P50613 2-346).
T1 construct: Cdk7, human, residues 2-346
Put plainly: pull-down; 10 µg of purified CDK–cyclin complex immobilised by its GST-tagged subunit on GSH 4B sepharose beads in 100 µl PBS; incubated 1 h in PBS or PBS with 5% 1,6-hexanediol; washed three times; eluted in SDS-sample buffer; Coomassie-stained SDS-PAGE. Conditions: both partners purified.

T1 sequence (P50613 2-346): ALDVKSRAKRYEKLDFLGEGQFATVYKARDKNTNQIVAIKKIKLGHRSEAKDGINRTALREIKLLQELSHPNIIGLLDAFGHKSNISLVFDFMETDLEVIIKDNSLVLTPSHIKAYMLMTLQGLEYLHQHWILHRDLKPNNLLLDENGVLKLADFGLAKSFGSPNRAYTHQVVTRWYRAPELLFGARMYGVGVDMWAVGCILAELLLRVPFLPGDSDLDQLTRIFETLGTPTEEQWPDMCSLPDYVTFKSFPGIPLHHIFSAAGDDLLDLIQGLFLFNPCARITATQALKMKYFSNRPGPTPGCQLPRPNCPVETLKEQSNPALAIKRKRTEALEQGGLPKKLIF

B1: Cyclin H (1–323) (natural protein, human, UniProt P51946 1-323, looked up)
chain: MYHNSSQKRHWTFSSEEQLARLRADANRKFRCKAVANGKVLPNDPVFLEPHEEMTLCKYYEKRLLEFCSVFKPAMPRSVVGTACMYFKRFYLNNSVMEYHPRIIMLTCAFLACKVDEFNVSSPQFVGNLRESPLGQEKALEQILEYELLLIQQLNFHLIVHNPYRPFEGFLIDLKTRYPILENPEILRKTADDFLNRIALTDAYLLYTPSQIALTAILSSASRAGITMESYLSESLMLKENRTCLSQLLDIMKSMRNLVKKYEPPRSEEVAVLKQKLERCHSAELALNVITKKRKGYEDDDYVSKKSKHEEEEWTDDDLVESL
notes: Cyclin H, human, residues 1-323; also called CycH
For B1, the binding result was “binds”.
